In patent publication US20170189519A1:

Assays:
Conditions in all cases: remark: other sources report otherwise
[1] = biological target: Tex_s127H1-t2-cl18long (influenza A virus H1N1 A/Texas/UR06-0526/07)
[2] = biological target: NY_s127H1-t2-cl18long (influenza A virus H1N1 A/New York/629/95)
[3] = biological target: 251C8 (influenza A H1N1 A/Brisbane/59/2007); assay: ELISA, coated CR6261, P. pastoris medium
[4] = biological target: 188G10 (influenza A H1N1 A/Brisbane/59/2007); assay: ELISA, coated CR6261, P. pastoris medium
[5] = biological target: 204C5 (influenza A H1N1 A/Brisbane/59/2007); assay: ELISA, coated CR6261, P. pastoris medium
[6] = biological target: 171E5 (influenza A H1N1 A/Brisbane/59/2007); assay: ELISA, coated CR6261, P. pastoris medium
[7] = biological target: 181H9 (influenza A H1N1 A/Brisbane/59/2007); assay: ELISA, coated CR6261, P. pastoris medium
[8] = biological target: 131D5 (influenza A H1N1 A/Brisbane/59/2007); assay: ELISA, coated CR6261, P. pastoris medium
[9] = biological target: 239D2 (influenza A H1N1 A/Brisbane/59/2007); assay: ELISA, coated CR6261, P. pastoris medium
[10] = biological target: 307A10 (influenza A H1N1 A/Brisbane/59/2007); assay: ELISA, coated CR6261, P. pastoris medium
[11] = biological target: 188F4 (influenza A H1N1 A/Brisbane/59/2007); assay: ELISA, coated CR6261, P. pastoris medium
[12] = biological target: 284B9 (influenza A H1N1 A/Brisbane/59/2007); assay: ELISA, coated CR6261, P. pastoris medium
[13] = biological target: 188C8 (influenza A H1N1 A/Brisbane/59/2007); assay: ELISA, coated CR6261, P. pastoris medium
[14] = biological target: 134H10 (influenza A H1N1 A/Brisbane/59/2007); assay: ELISA, coated CR6261, P. pastoris medium
[15] = biological target: 243D6 (influenza A H1N1 A/Brisbane/59/2007); assay: ELISA, coated CR6261, P. pastoris medium
[16] = biological target: 127H1 (influenza A H1N1 A/Brisbane/59/2007); assay: ELISA, coated CR6261, P. pastoris medium
[17] = biological target: 185G7 (influenza A H1N1 A/Brisbane/59/2007); assay: ELISA, coated CR6261, P. pastoris medium
[18] = biological target: 252B8 (influenza A H1N1 A/Brisbane/59/2007); assay: ELISA, coated CR6261, P. pastoris medium
[19] = biological target: 123E2 (influenza A H1N1 A/Brisbane/59/2007); assay: ELISA, coated CR6261, P. pastoris medium
[20] = biological target: 249B11 (influenza A H1N1 A/Brisbane/59/2007); assay: ELISA, coated CR6261, P. pastoris medium
[21] = biological target: 134D3 (influenza A H1N1 A/Brisbane/59/2007); assay: ELISA, coated CR6261, P. pastoris medium
[22] = biological target: 216E5 (influenza A H1N1 A/Brisbane/59/2007); assay: ELISA, coated CR6261, P. pastoris medium
[23] = biological target: 137C5 (influenza A H1N1 A/Brisbane/59/2007); assay: ELISA, coated CR6261, P. pastoris medium
[24] = biological target: 148D5 (influenza A H1N1 A/Brisbane/59/2007); assay: ELISA, coated CR6261, P. pastoris medium
[25] = biological target: 115A1 (influenza A H1N1 A/Brisbane/59/2007); assay: ELISA, coated CR6261, P. pastoris medium
[26] = biological target: 162B3 (influenza A H1N1 A/Brisbane/59/2007); assay: ELISA, coated CR6261, P. pastoris medium
[27] = biological target: 192C4 (influenza A H1N1 A/Brisbane/59/2007); assay: ELISA, coated CR6261, P. pastoris medium
[28] = biological target: 126C3 (influenza A H1N1 A/Brisbane/59/2007); assay: ELISA, coated CR6261, P. pastoris medium
[29] = biological target: 25304 (influenza A H1N1 A/Brisbane/59/2007); assay: ELISA, coated CR6261, P. pastoris medium
[30] = biological target: 145E7 (influenza A H1N1 A/Brisbane/59/2007); assay: ELISA, coated CR6261, P. pastoris medium
[31] = biological target: 252F5 (influenza A H1N1 A/Brisbane/59/2007); assay: ELISA, coated CR6261, P. pastoris medium
[32] = biological target: 182G8 (influenza A H1N1 A/Brisbane/59/2007); assay: ELISA, coated CR6261, P. pastoris medium
[33] = biological target: 191D5 (influenza A H1N1 A/Brisbane/59/2007); assay: ELISA, coated CR6261, P. pastoris medium
[34] = biological target: 182C6 (influenza A H1N1 A/Brisbane/59/2007); assay: ELISA, coated CR6261, P. pastoris medium
[35] = biological target: 134A4 (influenza A H1N1 A/Brisbane/59/2007); assay: ELISA, coated CR6261, P. pastoris medium

B1: CR6261 (antibody, V domains shown)
VH: EVQLVESGAEVKKPGSSVKVSCKASGGPFRSYAISWVRQAPGQGPEWMGGIIPIFGTTKYAPKFQGRVTITADDFAGTVYMELSSLRSEDTAMYYCAKHMGYQVRETMDVWGKGTTVTVSS
VL: QSVLTQPPSVSAAPGQKVTISCSGSSSNIGNDYVSWYQQLPGTAPKLLIYDNNKRPSGIPDRFSGSKSGTSATLGITGLQTGDEANYYCATWDRRPTAYVVFGGGTKLTVLG
- EC50 [1]: 0.369 µg/mL
- EC50 [2]: 0.455 µg/mL
- CR6261 binding signal [3]: 270000
- CR6261 binding signal [4]: 143000
- CR6261 binding signal [5]: 833000
- CR6261 binding signal [6]: 880000
- CR6261 binding signal [7]: 311000
- CR6261 binding signal [8]: 345000
- CR6261 binding signal [9]: 570000
- CR6261 binding signal [10]: 115000
- CR6261 binding signal [11]: 287000
- CR6261 binding signal [12]: 1.66e+06
- CR6261 binding signal [13]: 113000
- CR6261 binding signal [14]: 592000
- CR6261 binding signal [15]: 132000
- CR6261 binding signal [16]: 800000
- CR6261 binding signal [17]: 506000
- CR6261 binding signal [18]: 285000
- CR6261 binding signal [19]: 477000
- CR6261 binding signal [20]: 145000
- CR6261 binding signal [21]: 304000
- CR6261 binding signal [22]: 335000
- CR6261 binding signal [23]: 296000
- CR6261 binding signal [24]: 329000
- CR6261 binding signal [25]: 1.18e+06
- CR6261 binding signal [26]: 280000
- CR6261 binding signal [27]: 343000
- CR6261 binding signal [28]: 220000
- CR6261 binding signal [29]: 396000
- CR6261 binding signal [30]: 132000
- CR6261 binding signal [31]: 422000
- CR6261 binding signal [32]: 400000
- CR6261 binding signal [33]: 124000
- CR6261 binding signal [34]: 92900
- CR6261 binding signal [35]: 456000
